Holding throughout (settings): protein: recombinant; tags: His tag removed by TEV; single strand
The target in series [1] is T1, hnRNPA2 1-189 (tandem RRMs) (UniProt P22626-2 1-189). Nature of the series: ITC; ITC: 20 mM NaPi pH 6.75, 150 mM NaCl, 25 C (also 20 mM KPi pH 6.75; 20 mM MES pH 6.7, 150 mM NaCl, 10 mM CaCl2); protein in syringe, RNA in cell.
The target of series [2] is T1, hnRNPA2 1-189 (tandem RRMs). Nature of the series: ITC; 7000 uM protein, 800 uM RNA; N 0.921; ITC: 20 mM NaPi pH 6.75, 150 mM NaCl, 25 C (also 20 mM KPi pH 6.75; 20 mM MES pH 6.7, 150 mM NaCl, 10 mM CaCl2); protein in syringe, RNA in cell. A general note: ITC needs no label: the signal is the heat of the interaction.
Series [3] has the same target. Put plainly: ITC; 20 mM NaPi pH 6.75, 150 mM NaCl; N about 1; ITC: 20 mM NaPi pH 6.75, 150 mM NaCl, 25 C (also 20 mM KPi pH 6.75; 20 mM MES pH 6.7, 150 mM NaCl, 10 mM CaCl2); protein in syringe, RNA in cell.
The target is the same in series [4]. Nature of the series: ITC; 4600 uM protein, 115 uM RNA; N 0.785; ITC: 20 mM NaPi pH 6.75, 150 mM NaCl, 25 C (also 20 mM KPi pH 6.75; 20 mM MES pH 6.7, 150 mM NaCl, 10 mM CaCl2); protein in syringe, RNA in cell.
For series [5] the target is unchanged. Nature of the series: ITC; 20 mM KPi pH 6.75, no NaCl; N about 1; ITC: 20 mM NaPi pH 6.75, 150 mM NaCl, 25 C (also 20 mM KPi pH 6.75; 20 mM MES pH 6.7, 150 mM NaCl, 10 mM CaCl2); protein in syringe, RNA in cell.
The target is the same in series [6]. Put plainly: ITC; 7000 uM protein, 800 uM RNA; N 0.798; ITC: 20 mM NaPi pH 6.75, 150 mM NaCl, 25 C (also 20 mM KPi pH 6.75; 20 mM MES pH 6.7, 150 mM NaCl, 10 mM CaCl2); protein in syringe, RNA in cell.

T1 sequence (P22626 other isoform, or with tags, fused parts or gaps): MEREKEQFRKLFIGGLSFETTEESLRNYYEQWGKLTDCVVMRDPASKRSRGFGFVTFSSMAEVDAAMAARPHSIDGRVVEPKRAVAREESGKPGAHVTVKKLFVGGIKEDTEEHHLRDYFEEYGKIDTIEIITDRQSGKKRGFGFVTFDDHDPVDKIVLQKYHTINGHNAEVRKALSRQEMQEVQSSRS

By Kd is commonly meant the free concentration of one partner at which half of the binding sites on the other are occupied at equilibrium, for simple one-to-one binding. In the case of AAGGACUAGC (ssRNA) [Wu_10mer], the Kd in series [1] turned out to be 0.228 ± 0.002 µM.
Take GCCAAGGAGCC (ssRNA) [rA2RE11]: the Kd in series [2] was 139 ± 10 µM; in series [3], about 52 µM; in series [4], 19.8 ± 0.4 µM; in series [5] it was about 35 µM; in series [6] it was 143 ± 10 µM.

Values taken from article PMC7544213, “Weak binding to the A2RE RNA rigidifies hnRNPA2 RRMs and reduces liquid–liquid phase separation and aggregation”.
